Measured values reported in the supplement of paper PMC9732359.
± gives the uncertainty stated by the source.

Assay: protein stability index of a GFP-peptide fusion (yeast GPS) (PSI 1-4); higher = more stable; sorted into four equal gates, so the index is relative within each strain
Outline: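 Plasmids in a pooled yeast library fused tiled 17-residue yeast protein peptides downstream of GFP and also expressed Cherry. Mid-log cultures grown without leucine were sorted into four equal gates by GFP/Cherry fluorescence ratio. Each gate's plasmids were PCR-amplified and Illumina-sequenced, and reads were matched to strains by barcodes. The protein stability index is derived by multiplying each gate's read frequency by its gate number and summing the results.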

Row | Sequence | protein stability index (doa10∆) | protein stability index (pdr5∆) | protein stability index (san1∆) | protein stability index (ubr1∆)
1 | FWFDKLVTKILPLKKNE [YCG1] | 2.83 ± 0.21 | 3 ± 0.14 | 3.1 ± 0.15 | 2.43 ± 0.24
2 | REIVMPAHTKYMLIEEA [ITC1] | 3.2 ± 0.1 | 3.42 ± 0.1 | 3.03 ± 0.071 | 3.31 ± 0.13
3 | PSSSDSNGPRAAKKRRP [RRP6] | 3.08 ± 0.11 | 3.29 ± 0.085 | 3.28 ± 0.063 | 3.3 ± 0.062
4 | YPEYDQITKFPKYRDNL [SSN3] | 2.21 ± 0.18 | 2.4 ± 0.13 | 2.24 ± 0.12 | 2.25 ± 0.047
5 | MELSPTYQTERFTKFSD [YDL116W/NUP84] | 3.09 ± 0.13 | 2.74 ± 0.17 | – | 2.79 ± 0.22
6 | PNCLFILKLLNGFMESA [SOH1] | 1.9 ± 0.17 | 1.54 ± 0.12 | 1.68 ± 0.18 | 1.44 ± 0.18
7 | VAQQQVQRQIEQQKGQQ [SNF5] | 3.42 ± 0.079 | 3.14 ± 0.1 | 3.46 ± 0.075 | 3.19 ± 0.089
8 | LPVASPFHSHLLVPASD [FAS1] | 1.61 ± 0.053 | 1.62 ± 0.062 | 1.98 ± 0.063 | 1.96 ± 0.044
9 | QVSKKLSSIEASLKIKN [SMC3] | 1.67 ± 0.069 | 1.7 ± 0.085 | 2.44 ± 0.12 | 2.27 ± 0.08
10 | EVFSVLGIEAARYSIIR [RPO31] | 1.72 ± 0.13 | 1.63 ± 0.11 | 1.43 ± 0.25 | 1.59 ± 0.14
11 | ETQVLVSTPEKWDITTR [BRR2] | 3.17 ± 0.092 | 3.26 ± 0.083 | 3.31 ± 0.053 | 3.21 ± 0.034
12 | DQNNATMGEETAKKDMS [SNF12] | 3.44 ± 0.082 | 3.34 ± 0.11 | 3.21 ± 0.12 | 3.32 ± 0.09
13 | ADWDPESMAYTAFQTQR [YML031W/NDC1] | 2.89 ± 0.14 | 3.34 ± 0.11 | 3.24 ± 0.17 | 3.36 ± 0.12
14 | FGANQATNTFGSNQQSS [YGR119C/NUP57] | 2.91 ± 0.12 | 3.26 ± 0.076 | 3.2 ± 0.12 | 2.92 ± 0.073
15 | PAPSKPVIDYELKEITS [BRR2] | 3.15 ± 0.079 | 3.2 ± 0.081 | 2.97 ± 0.068 | 3.1 ± 0.07
16 | NNSKSRYPMNLLEFIID [ECM29] | 2.5 ± 0.086 | 2.69 ± 0.052 | 2.64 ± 0.075 | 2.92 ± 0.097
17 | EAAAKEKDELDNIEVSK [QCR7] | 3.18 ± 0.098 | 3.41 ± 0.079 | 3.29 ± 0.084 | 3.22 ± 0.055
18 | KQAHEKLDASKKQQAAL [YIL149C/MLP2] | 3.08 ± 0.064 | 2.88 ± 0.052 | 3.25 ± 0.059 | 3 ± 0.057
19 | VITLAEYEKRNHGGSLG [SRP68] | 3.42 ± 0.11 | 3.06 ± 0.13 | 3.28 ± 0.074 | 3.55 ± 0.14
